# Target: HSPB7ACD (α-crystallin domain, residues 78-162 of isoform 2) (human)
# Assay: native MS
row,Binder,Kd
1,"FLNCd24 (domain 24 of filamin C, residues 2630-2724), wild type (domain or fragment) GSKFSSDASKVVTRGPGLSQAFVGQKNSFTVDCSKAGTNMMMVGVHGPKTPCEEVYVKHMGNRVYNVTYTVKEKGDYILIVKWGDESVPGSPFKVKV",3.9 nM
2,"FLNCd24 T2677D (phospho-mimic, residues 2630-2724) (domain or fragment) GSKFSSDASKVVTRGPGLSQAFVGQKNSFTVDCSKAGTNMMMVGVHGPKDPCEEVYVKHMGNRVYNVTYTVKEKGDYILIVKWGDESVPGSPFKVKV",14.1 nM
3,"FLNCd24 Y2683E (phospho-mimic, residues 2630-2724) (domain or fragment) GSKFSSDASKVVTRGPGLSQAFVGQKNSFTVDCSKAGTNMMMVGVHGPKTPCEEVEVKHMGNRVYNVTYTVKEKGDYILIVKWGDESVPGSPFKVKV",2.2 nM
